T1: feline IL-31 full-length construct for E. coli expression (feline)
T1 construct: Purified from E. coli under denaturing conditions and dialysed; also called feline IL-31 protein
T1 chain: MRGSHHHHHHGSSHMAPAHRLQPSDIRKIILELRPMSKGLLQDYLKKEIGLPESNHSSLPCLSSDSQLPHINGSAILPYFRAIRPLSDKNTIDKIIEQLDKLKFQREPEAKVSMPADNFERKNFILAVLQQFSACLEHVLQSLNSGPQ

T2: canine IL-31 full-length construct for E. coli expression (canine)
T2 construct: also called canine IL-31 (E. coli)
T2 chain: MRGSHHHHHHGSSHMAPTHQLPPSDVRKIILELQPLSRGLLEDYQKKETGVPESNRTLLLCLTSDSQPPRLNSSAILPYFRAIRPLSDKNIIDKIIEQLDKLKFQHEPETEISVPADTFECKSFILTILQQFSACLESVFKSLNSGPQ

T3: canine IL-31 20-122 construct (canine)
T3 construct: also called C-terminal truncation at positions 20-122
T3 chain: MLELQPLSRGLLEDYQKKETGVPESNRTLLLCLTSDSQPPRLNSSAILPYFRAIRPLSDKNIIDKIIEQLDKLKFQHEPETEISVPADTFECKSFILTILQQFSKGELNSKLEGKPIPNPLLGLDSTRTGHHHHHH

T4: canine IL-31 20-80 construct (canine)
T4 construct: The range counts on the full-length E. coli construct; also called C-terminal truncation at positions 20-80
T4 chain: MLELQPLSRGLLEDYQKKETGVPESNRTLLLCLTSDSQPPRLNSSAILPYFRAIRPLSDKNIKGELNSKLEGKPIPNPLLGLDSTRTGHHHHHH

B1: Mouse 11E12 (antibody, V domains shown)
VH: QVQLQQSGAELVKPGASVKLSCKASGYTFKYYDINWVRQRPEQGLEWIGWIFPGDGGTKYNETFKGKATLTTDKSSSTAYMQLSRLTSEDSAVYFCARGGTSVIRDAMDYWGQGTSVTVSS
VL: DIVLTQSPASLAVSLGQRATISCRASESVDNYGISFMHWYQQKPGQPPKLLIYRASNLESGIPARFSGSGSRTDFTLTINPVETDDVATYYCQQSNKDPLTFGAGTKLELK
notes: Mouse hybridoma monoclonal; also called mAb 11E12; MU-11E12
B2: Mouse 34D03 (antibody, V domains shown)
VH: EVQLVESGGDLVKPGGSLKLSCAASGFSFSNYGMSWVRQTPDKRLEWVATISYGGSYTYYPDNIKGRFTISRDNAKNTLYLQMSSLKSEDTAMYYCVRGYGYDTMDYWGQGTSVTVSS
VL: DILLTQSPASLAVSLGQRAIISCKASQSVSFAGTGLMHWYQQKPGQQPKLLIYRASNLEAGVPTRFSGSGSRTDFTLNIHPVEEEDAATYFCQQSREYPWTFGGGTKLEIK
notes: Mouse hybridoma monoclonal; also called mAb 34D03; MU-34D03
B3: Felinized 34D03 (antibody, V domains shown)
VH: DVQLVESGGDLVKPGGSLRLTCVASGFTYSNYGMSWVRQAPGKGLQWVATISYGGSYTYYPDNIKGRFTISRDNAKNTLYLQMNSLKTEDTATYYCVRGYGYDTMDYWGQGTLVTVSS
VL: EIQMTQSPSSLSASPGDRVTITCKASQSVSFAGTGLMHWYQQKPGKVPKLLIYRASNLEAGVPSRFSGSGSGTDFTLTISSLEPEDAATYYCQQSREYPWTFGQGTKLEIKR
notes: Produced from HEK cells; also called feline 34D03; felinized antibody 34D03

What was measured:
[1] = target: T1, feline IL-31 full-length construct for …; assay: Western blot of purified IL-31 proteins
[2] = target: T5, pET101D-lacZ protein (UniProt P00722 1-1024 = β-galactosidase, limits assumed); assay: Western blot of crude E. coli lysates
T5 construct: Control lane on the truncation blots; also called beta-galactosidase (lacZ)
Experimental: (§1) It was observed that the full length IL-31 protein was expressed very poorly. […] Antibodies 11E12 and 34D03 all bound to the −20N protein. Therefore, further work was carried out using this −20 N construct. Constructs representing C-terminal truncations at positions 20-122 (MW 15.3 with his tag), 20-100 (MW 12.9 with his tag), and 20-80 (MW 10.4 with his tag), were made to assess mAb binding to these areas on the IL-31 protein. The amino acid and nucleotide sequences corresponding to the 20-122 construct are SEQ ID NOs: 63 and 64, respectively. The amino acid and nucleotide sequences corresponding to the 20-100 construct are SEQ ID NOs: 65 and 66, respectively. The amino acid and nucleotide sequences corresponding to the 20-80 construct are SEQ ID NOs: 67 and 68, respectively. […] This region corresponds to amino acid Nos. between amino acid residues 102 and 122 of the canine IL-31 full-length protein sequence of SEQ ID NO: 32. […] In addition, the pET101D-lacZ protein was used as a control to confirm the lack of non-specific binding of mAbs to host proteins.

[3] = target: T6, canine IL-31 with double alanine substitution (D82A, I85A) (canine); assay: Western blot of E. coli lysates
T6 construct: The -20N backbone is stated for the alanine scan and -20N was the control on this blot; also called double mutation
Description: (§2) To examine the impact of multiple mutations in the region of IL-31 important for binding to the 11E12 and 34D03 antibodies, expression plasmids were constructed with double (D82A, […]) and triple (I81A, D82A, I85A) alanine substitutions. E. coli lysates expressing canine IL-31 with these double and triple mutations in addition to the −20N control were blotted with 11E12 and 34D03 antibodies (FIG. 16). It is apparent that these three amino acids on canine IL-31 are involved with recognition of 11E12 and 34D03 as complete abrogation of binding is observed when these sites are changed to alanine. These three amino acids correspond to amino acid residues 103, 104 and 107 of the canine IL-31 full-length protein sequence of SEQ ID NO: 32.

[4] = target: T7, canine IL-31 with triple alanine substitution (I81A, D82A, I85A) (canine); assay: Western blot of E. coli lysates
T7 construct: Positions count on the full-length E. coli construct; also called triple mutation
Description: as §2

[5] = target: T2, canine IL-31 full-length construct for …; assay: Western blot of purified IL-31 proteins
[6] = target: T8, canine IL-31 -40N construct (canine); assay: Western blot of crude E. coli lysates
T8 construct: Crude E. coli lysate on Western blot; also called N-terminal truncation -40N
Experimental: as §1

[7] = target: T9, canine IL-31 20-100 construct (canine); assay: Western blot of crude E. coli lysates
T9 construct: The range counts on the full-length E. coli construct; also called C-terminal truncation at positions 20-100
Experimental: as §1

[8] = target: T3, canine IL-31 20-122 construct; assay: Western blot of crude E. coli lysates
Experimental: as §1

[9] = target: T4, canine IL-31 20-80 construct; assay: Western blot of crude E. coli lysates
Experimental: as §1

[10] = target: T10, canine IL-31 -60N construct (canine); assay: Western blot of crude E. coli lysates
T10 construct: Crude E. coli lysate on Western blot; also called N-terminal truncation -60N
Experimental: as §1

[11] = target: T11, canine IL-31 -20N construct (canine); assay: Western blot of crude E. coli lysates
T11 construct: Crude E. coli lysate on Western blot; also called N-terminal truncation -20N; -20N protein
Experimental: as §1

[12] = target: T1, feline IL-31 full-length construct for …; assay: Western blot under reducing conditions, purified protein from mammalian and E. coli sources

T5 sequence (P00722 whole entry, the tested form may be a part): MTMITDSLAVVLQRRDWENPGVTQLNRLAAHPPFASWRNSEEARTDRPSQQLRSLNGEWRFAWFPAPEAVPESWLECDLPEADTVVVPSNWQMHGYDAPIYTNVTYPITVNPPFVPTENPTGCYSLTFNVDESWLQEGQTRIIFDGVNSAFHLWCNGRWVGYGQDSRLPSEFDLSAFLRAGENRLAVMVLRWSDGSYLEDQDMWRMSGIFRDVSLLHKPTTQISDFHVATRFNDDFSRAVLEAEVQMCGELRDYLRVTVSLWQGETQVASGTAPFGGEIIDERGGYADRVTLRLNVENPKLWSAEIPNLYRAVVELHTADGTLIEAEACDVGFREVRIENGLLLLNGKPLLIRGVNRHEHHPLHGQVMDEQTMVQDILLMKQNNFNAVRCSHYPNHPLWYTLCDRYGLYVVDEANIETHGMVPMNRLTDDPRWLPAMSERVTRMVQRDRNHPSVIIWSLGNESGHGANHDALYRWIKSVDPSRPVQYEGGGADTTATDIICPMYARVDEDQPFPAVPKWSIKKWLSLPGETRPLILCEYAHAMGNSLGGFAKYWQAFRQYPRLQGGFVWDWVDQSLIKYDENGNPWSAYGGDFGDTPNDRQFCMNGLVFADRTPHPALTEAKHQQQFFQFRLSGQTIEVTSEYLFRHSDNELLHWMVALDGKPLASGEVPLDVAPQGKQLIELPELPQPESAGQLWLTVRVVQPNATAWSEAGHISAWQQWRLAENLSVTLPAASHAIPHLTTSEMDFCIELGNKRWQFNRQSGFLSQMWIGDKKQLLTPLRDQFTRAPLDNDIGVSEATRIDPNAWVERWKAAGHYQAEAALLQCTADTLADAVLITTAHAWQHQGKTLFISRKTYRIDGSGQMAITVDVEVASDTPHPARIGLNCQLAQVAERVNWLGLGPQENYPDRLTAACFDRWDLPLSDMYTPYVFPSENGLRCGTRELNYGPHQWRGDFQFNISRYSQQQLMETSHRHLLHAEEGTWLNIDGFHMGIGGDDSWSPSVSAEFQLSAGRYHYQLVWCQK

Binder | binding result [1] | binding result [2] | binding result [3] | binding result [4] | binding result [5] | binding result [6] | binding result [7] | binding result [8] | binding result [9] | binding result [10] | binding result [11] | binding result [12]
B1 | binds | no binding |  |  |  |  |  |  |  |  |  | 
B2 | binds | no binding | no binding | no binding | binds | binds | binds | binds | no binding | binds | binds | 
B3 |  |  |  |  |  |  |  |  |  |  |  | binds

From US20140315251A1 (ZOETIS SERVICES, published 2014)
